Source: patent publication US20040014707A1

Target: PA specific receptor on A549 human lung epithelial cells

EGFP-PA32 fusion protein
fold signal over non-specific EGFP binding: 4 fold
